Key:
Assay in all cases: NADPH consumption at A340, Lineweaver-Burk
Type in all cases: biochemical, Oryza sativa
Details in all cases: 300 μM NADPH, 100 mM sodium/potassium phosphate pH 6.25, 30 °C, substrate 5–50 μM
[1] = substrate: COc1cc(/C=C/C=O)cc(OC)c1O
Description: (§1) NADPH consumption at A340, Lineweaver-Burk on OsCAD6

[2] = substrate: O=C/C=C/c1ccc(O)cc1
Description: as §1

[3] = substrate: COc1cc(/C=C/C=O)ccc1O
Description: as §1

[4] = substrate: O=CC=Cc1ccccc1
Description: as §1

[5] = substrate: COc1cc(/C=C/C=O)cc(OC)c1O; remark: listed apart in the source
Description: (§2) NADPH consumption at A340, Lineweaver-Burk on OsCAD7

[6] = substrate: O=C/C=C/c1ccc(O)cc1; remark: listed apart in the source
Description: as §2

[7] = substrate: COc1cc(/C=C/C=O)ccc1O; remark: listed apart in the source
Description: as §2

[8] = substrate: O=CC=Cc1ccccc1; remark: listed apart in the source
Description: as §2

[9] = substrate: COc1cc(/C=C/C=O)cc(OC)c1O; remark: listed apart in the source
Description: (§3) NADPH consumption at A340, Lineweaver-Burk on OsCAD2

[10] = substrate: O=C/C=C/c1ccc(O)cc1; remark: listed apart in the source
Description: as §3

[11] = substrate: COc1cc(/C=C/C=O)ccc1O; remark: listed apart in the source
Description: as §3

[12] = substrate: O=CC=Cc1ccccc1; remark: listed apart in the source
Description: as §3

B1: OsCAD6 (Oryza sativa Japonica Group) (protein)
chain: MEVTPNHTQTVSGWAAMDESGKIVPFVFKRRENGVDDVTIKVKYCGMCHTDLHFIHNDWGITMYPVVPGHEITGVVTKVGTNVAGFKVGDRVGVGCIAASCLDCEHCRRSEENYCDKVALTYNGIFWDGSITYGGYSGMLVAHKRFVVRIPDTLPLDAAAPLLCAGITVYSPMKQHGMLQADAAGRRLGVVGLGGLGHVAVKFGKAFGLHVTVISTSPAKEREARENLKADNFVVSTDQKQMQAMTRSLDYIIDTVAATHSLGPILELLKVNGKLVLVGAPEKPVELPSFPLIFGKRTVSGSMTGGMKETQEMMDICGEHNITCDIEIVSTDRINDALARLARNDVRYRFVINVGGDSKL
What does the source list for B1?
Km [1]: 10.72 ± 0.47 µM; Vmax [1]: 0.103 µmol/min/mg; kcat [1]: 0.0733 s⁻¹; kcat/Km [1]: 6830 M⁻¹ s⁻¹; Km [2]: 10.88 ± 4.29 µM; Vmax [2]: 0.11 µmol/min/mg; kcat [2]: 0.0757 s⁻¹; kcat/Km [2]: 7500 M⁻¹ s⁻¹; Km [3]: 16.18 ± 4.49 µM; Vmax [3]: 0.217 µmol/min/mg; kcat [3]: 0.154 s⁻¹; kcat/Km [3]: 9670 M⁻¹ s⁻¹; Km [4]: 28.25 ± 11.36 µM; Vmax [4]: 0.439 µmol/min/mg; kcat [4]: 0.311 s⁻¹; kcat/Km [4]: 11500 M⁻¹ s⁻¹

B2: OsCAD7 (Oryza sativa Japonica Group) (protein)
chain: MAPTTTATAAAEQAPPPQHTRKAVGLAAHDDSGHLTPIRISRRKTGDDDVAIKVLYCGICHSDLHTIKNEWRNAVYPVVAGHEITGVVTEVGKNVARFKAGDEVGVGCMVNTCGGCESCRDGCENYCSGGVVFTYNSVDRDGTRTYGGYSDAVVVSQRFVVRFPSSAGGGAGAALPLDSGAPLLCAGVTVYAPMRQHGLCEAGKHVGVVGLGGLGHVAVKFARAFGMRVTVISTSPVKRQEALERLGADGFIVSTNASEMKAAMGTMHGIINTASASTSMHSYLALLKPKGKMILVGLPEKPLQIPTFALVGGGKILAGSCMGSISETQEMIDFAAEHGVAADIELIGADEVNTAMERLAKGDVRYRFVVDIGNTLRSD
Which results are given for B2?
Km [5]: 6.42 ± 1.77 µM; Vmax [5]: 0.17 µmol/min/mg; kcat [5]: 0.128 s⁻¹; kcat/Km [5]: 21200 M⁻¹ s⁻¹; Km [6]: 2.66 ± 0.49 µM; Vmax [6]: 0.09 µmol/min/mg; kcat [6]: 0.0692 s⁻¹; kcat/Km [6]: 26300 M⁻¹ s⁻¹; Km [7]: 11.44 ± 2.16 µM; Vmax [7]: 0.38 µmol/min/mg; kcat [7]: 0.285 s⁻¹; kcat/Km [7]: 25300 M⁻¹ s⁻¹; Km [8]: 14.11 ± 4.00 µM; Vmax [8]: 0.25 µmol/min/mg; kcat [8]: 0.188 s⁻¹; kcat/Km [8]: 13700 M⁻¹ s⁻¹

B3: OsCAD2 (Oryza sativa Japonica Group) (protein)
chain: MGSLAAEKTVTGWAARDASGHLTPYNYTLRKTGPEDVVVKVLYCGICHTDIHQAKNHLGASKYPMVPGHEVVGEVVEVGPEVTKYSAGDVVGVGVIVGCCRECHPCKANVEQYCNKRIWSYNDVYTDGRPTQGGFASAMVVDQKFVVKIPAGLAPEQAAPLLCAGLTVYSPLKHFGLMSPGLRGGVLGLGGVGHMGVKVAKSMGHHVTVISSSARKRGEAMDDLGADAYLVSSDAAAMAAAGDSLDYIIDTVPVHHPLEPYLALLKLDGKLILMGVINQPLSFISPMVMLGRKAITGSFIGSMAETEEVLNFCVDKGLTSQIEVVKMDYVNQALERLERNDVRYRFVVDVAGSNIDDADAPPA
What does the source list for B3?
Km [9]: 8.19 ± 2.62 µM; Vmax [9]: 52.9 µmol/min/mg; kcat [9]: 41.2 s⁻¹; kcat/Km [9]: 5.35e+06 M⁻¹ s⁻¹; Km [10]: 9.36 ± 2.50 µM; Vmax [10]: 17.8 µmol/min/mg; kcat [10]: 13.9 s⁻¹; kcat/Km [10]: 1.54e+06 M⁻¹ s⁻¹; Km [11]: 4.37 ± 0.85 µM; Vmax [11]: 38.7 µmol/min/mg; kcat [11]: 30.1 s⁻¹; kcat/Km [11]: 7.15e+06 M⁻¹ s⁻¹; Km [12]: 5.30 ± 3.42 µM; Vmax [12]: 11.6 µmol/min/mg; kcat [12]: 9.05 s⁻¹; kcat/Km [12]: 2.37e+06 M⁻¹ s⁻¹
